For 24 molecules, Kd and binding score results are on record in paper PMC9876794 (2022).

A word on the Kd: it is the constant that tells how readily two partners part at equilibrium.

B1: C2716 (antibody, V domains shown)
VH: EVQLVESGGGLIQPGGSLRLSCAASGFIVSSNYMSWVRQAPGKGLEWVSVIYSGGSTYYADSVKGRFTISRDNSKNTLYLQMNSLRAEDTAVYYCARDLGSYGHFDYWGQGTLVTVSS
VL: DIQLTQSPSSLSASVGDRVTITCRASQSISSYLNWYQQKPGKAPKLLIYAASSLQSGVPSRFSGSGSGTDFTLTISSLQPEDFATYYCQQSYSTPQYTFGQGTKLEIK
B2: D126 (antibody, V domains shown)
VH: QVQLVQSGAEVKKPGASVKVSCKASGYTFTSYGISWVRQAPGQGLEWMGWISAYNGNTNYAQKLQGRVTMTTDTSTSTAYMELRSLRSDDTAVYYCARDDTSGWYTGDAFDIWGQGTMVTVSS
VL: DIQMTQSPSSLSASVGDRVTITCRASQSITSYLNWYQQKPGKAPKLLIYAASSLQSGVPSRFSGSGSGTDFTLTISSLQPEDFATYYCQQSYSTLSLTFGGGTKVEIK
B3: D145 (antibody, V domains shown)
VH: QVQLVESGGGVVQPGRSLRLSCAASGFTFSSYGMHWVRQAPGKGLEWVAVISYDGSNKYYADSVKGRFTISRDNSKNTLYLQMNSLRAEDTAVYYCAKGSGPYYYDSSGYYSLFDYWGQGTLVTVSS
VL: EIVMTQSPATLSVSPGERATLSCRASQSISSNLAWYQQKPGQAPRLLIDGASTRATGIPARFSGSGSGTEFTLTISSLQSEDFAVYYCQQYNNWPTFGQGTKLEIK
B4: D155 (antibody, V domains shown)
VH: QLQLQESGPGLVKPSETLSLTCTVSGGSISSSSYYWGWIRQPPGKGLEWIGSIYYSGSTYYNPSLKSRVTISVDTSKNQFSLKLSSVTAADTAVYYCARQPYYYDSSGINRAFDIWGQGTMVTVSS
VL: QSVLTQPRSVSGSPGQSVTISCTGTSSDVGGYNYVSWYQQHPGKAPKLMIYDVSKRPSGVPDRFSGSKSGNTASLTISGLQAEDEADYYCCSYAGTVVFGGGTKLTVL
B5: C2702 (antibody, V domains shown)
VH: EVQLVESGGGLVQPGGSLRLSCAASGFTFSSYSMNWVRQAPGKGLEWVSYISSSSSTIYYADSVKGRFTISRDNAKNSLYLQMNSLRDEDTAVYYCASFLWDHSGYDLLFGMDVWGQGTTVTVSS
VL: not shown
B6: D138 (antibody, V domains shown)
VH: QVQLVESGGGVVQPGRSLRLSCAASGFTFSSYGMHWVRQAPGKGLEWVAVISYDGSNKYYADSVKGRFTISRDNSKNTLYLQMNSLRAEDTAVYYCAKRAPYYYGPGGIDYWGQGTLVTVSS
VL: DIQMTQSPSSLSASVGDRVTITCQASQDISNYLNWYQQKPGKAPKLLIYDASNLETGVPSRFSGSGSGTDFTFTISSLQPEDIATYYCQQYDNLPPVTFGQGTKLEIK
B7: C2723 (antibody, V domains shown)
VH: QVQLQESGPGLVKPSETLSLTCTVSGGSVSSGSYYWSWIRQPPGKGLEWIGYIYYSGSTNYNPSLKSRVTISVDTSKNQFSLKLSSVTAADTAVYYCARGALYDSSGYYPELPVYWGQGTLVTVSS
VL: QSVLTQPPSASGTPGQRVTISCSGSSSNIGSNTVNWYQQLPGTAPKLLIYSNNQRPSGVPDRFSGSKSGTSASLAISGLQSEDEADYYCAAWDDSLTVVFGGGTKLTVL
B8: D008 (antibody, V domains shown)
VH: QVQLVESGGGVVQPGRSLRLSCAASGFTFRSYGMHWVRQAPGKGLEWVAVISYDGSTKYYADSVKGRFTISRDNSKNTLYLQMNSLRAEDTAVYYCAKGGYYYDSNTYYVYWGQGTLVTVSS
VL: DIQMTQSPSSLSASVGDRVTITCQASQDISNHLNWYQQKPGKAPKLLIYDASNLETGVPSRFSGSGSGTDFTFTISSLQPEDIATYYCQQYDNLPPITFGQGTRLEIK
B9: C2705 (antibody, V domains shown)
VH: EVQLVQSGAEVKKPGESLKISCKGSGYSFTSYWIGWVRQMPGKGLEWMGIIYPGDSDTRYSPSFQGQVTISADKSISTAYLQWSSLKASDTAMYYCARPVVTDYWYFDLWGRGTLVTVSS
VL: not shown
B10: C2712 (antibody, V domains shown)
VH: EVQLVESGGGLVQPGGSLRLSCVASGFTFSSDDIHWVRQATGKGLEWVSGIGTAGDTYYAGSVKGRFTISRENAKNSLYLQMKSLRAGDTAVYYCARGVQSWLRGYYYYYMDVWGKGTTVTVSS
VL: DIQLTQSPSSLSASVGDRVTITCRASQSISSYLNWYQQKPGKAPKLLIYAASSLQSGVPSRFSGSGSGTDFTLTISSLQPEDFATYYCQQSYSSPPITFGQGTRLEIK
B11: C2709 (antibody, V domains shown)
VH: EVQLVESGGGLVQPGGSLRLSCAASGFTVSSNYMSWVRQAPGKGLEWVSVIYSGGSTYYADSVKGRFTISRDNSKNTLYLQMNSLRAEDTAVYYCARDNEHYGSGSLTLDYWGQGTLVTVSS
VL: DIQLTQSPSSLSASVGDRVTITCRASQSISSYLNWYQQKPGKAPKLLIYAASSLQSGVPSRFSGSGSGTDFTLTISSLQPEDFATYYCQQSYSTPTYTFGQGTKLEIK
B12: D068 (antibody, V domains shown)
VH: EVQLVESGGGLVKPGGSLRLSCAASGFTFSSYSMNWVRQAPGKGLEWVSSISSSSSYIYYADSVKGRFTISRDNAKNSLYLQMNSLRAEDTAVYYCARVDSSGWYTGDAFDIWGQGTMVTVSS
VL: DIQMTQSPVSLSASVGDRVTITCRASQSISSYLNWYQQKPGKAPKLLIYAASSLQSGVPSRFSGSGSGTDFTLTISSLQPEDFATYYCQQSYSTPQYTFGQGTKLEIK
B13: D053 (antibody, V domains shown)
VH: EVQLVESGGGLVKPGGSLRLSCAASGFTFSNAWMSWVRQAPGKGLEWIGRIKSNTDGGTIDYAAPVKGRFTISRDDSKNTLYLQMNSLKTEDTAVYYCTTDGAFFVVADPFDYWGQGTLVTVSS
VL: DIQMTQSPSSLSASVGDRVTITCRASQSMTNYLNWYQQKPGKAPELLIYGVSSLQSGVPSRFSGSGSGTDFTLTISSLQPEDFATYYCQQSYRTPRTFGQGTKVEIK
B14: D125 (antibody, V domains shown)
VH: QVQLQESGPGLVKPSETLSLTCSVSGVSISSYYWSWIRQPPGKGLEWIGYIYYSGSTNYNPSLKSRVTISVDTSKNQFSLKLSSVTAADTAVYYCARVVGDGYNFGYYYYMDVWGKGTTVTVSS
VL: QSVLTQPPSVSAAPGQKVTISCSGSSSNIGNNYVSWYQQLPGTAPKLLIYENNKRPSGIPDRFSGSKSGTSATLGITGLQTGDEADYYCGTWDSSLSAYVFGTGTKVTVL
B15: C2717 (antibody, V domains shown)
VH: EVQLVESGGGLVQPGGSLRLSCAASGFTVSSNYMSWVRQAPGKGLEWVSVIYSGGSTYYADSVKGRFTISRDNSKNTLYLQMNSLRAEDTAVYYCARELYSSSSYFDYWGQGTLVTVSS
VL: QSVLTQPPSVSGAPGQRVTISCTGSSSNIGAGYDVHWYQQLPGTAPKLLIYGNSNRPSGVPDRFSGSKSGTSASLAITGLQAEDEADYYCQSYDSSLSGSGVFGGGTKLTVL
B16: D009 (antibody, V domains shown)
VH: EVQLLESGGGLVQPGGSLRLSCAATGFTFGSYTMTWVRQAPGKGLEWVSSISVSGRRTYYAGSVQGRFTVSRDNSMNALFLQMNSLRADDTAVYYCARDAPREAYYDRTGHYIFYYGMDLWGQGTTVTVSS
VL: EIVMTQSPATLSVSPGERATLSCRASQSVSDNLAWYQQKPGQAPRLLIYGASTRAIGIPDRFTGSGSGTEFTLTISSLQSEDFAVYYCQHYNNGPSVGFGQGTRVEFK
B17: D048 (antibody, V domains shown)
VH: QLQLQESGPGLVKPSETLSLTCTVSGGSISSSSYYWGWIRQPPGKGLELIGTIYYSGSTYYNPSLKSRVTISVDTSKNQFSLKLSSVTAADTAVYYCARKGPYYYDRSGYYRPGPIDYWGQGTLVTVSS
VL: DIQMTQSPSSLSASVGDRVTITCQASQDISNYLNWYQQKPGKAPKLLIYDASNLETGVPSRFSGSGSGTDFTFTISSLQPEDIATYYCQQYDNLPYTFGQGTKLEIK
B18: D041 (antibody, V domains shown)
VH: EVQLVQSGAEVKKPGESLKISCKGSGYSFTSYWIGWVRQMPGKGLEWMGIIYPGDSDTRYSPSFQGQVTISADKSISTAYLQWSSLKASDTAMYYCARHPTVTGWFDPWGQGTLVTVSS
VL: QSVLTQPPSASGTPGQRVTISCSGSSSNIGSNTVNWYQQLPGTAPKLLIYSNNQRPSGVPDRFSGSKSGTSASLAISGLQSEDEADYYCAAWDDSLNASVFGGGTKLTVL
B19: D045 (antibody, V domains shown)
VH: EVQLVESGGGLVQPGGSLRLSCAASGFTFSSYSMNWVRQAPGKGLEWVSYISSSSSTIYYADSVKGRFTISRDNAKNSLYLQMNSLRDEDTAVYYCARHYGSGSSYYYYGMDVWGQGTTVTVSS
VL: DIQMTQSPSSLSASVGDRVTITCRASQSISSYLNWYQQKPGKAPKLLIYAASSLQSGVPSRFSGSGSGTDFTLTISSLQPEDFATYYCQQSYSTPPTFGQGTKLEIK
B20: D063 (antibody, V domains shown)
VH: EVQLVQSGAEVKKPGESLKISCKGSGYSFTSYWIGWVRQMPGKGLEWMGIIYPGDSDTSPSFQGQVTISADKSISTAYLQWSSLKASDTAMYYCARVLNWNLGDYWGQGTLVTVSS
VL: not shown
B21: C2739 (antibody, V domains shown)
VH: EVQLVESGGGLVQPGGSLRLSCAASGFTFSSYWMSWVRQAPGKGLEWVANIKKDGSEKYYVDSVKGRFTISRDNDKNSLYLQMNSLRAEDTAVYYCARKKYYYGDFDYWGQGTLVTVSS
VL: NFMLTQPHSVSESPGKTVTISCTRSSGSIASNYVQWYQQRPGSSPTTVIYEDNQRPSGVPDRFSGSIDSSSNSASLTISGLKTEDEADYYCQSYDSIIREVFGGGTKLTVL
B22: D083 (antibody, V domains shown)
VH: EVQLVQSGAEVKKPGESLKISCKGSGYSFTSHWIGWVRQMPGKGLEWMGIIYPGDSDTRYSPSFQGQVTISADKSISTAYLQWSSLKASDTAMYYCARHIKSDLWFGEKDSWGQGTLVTVSS
VL: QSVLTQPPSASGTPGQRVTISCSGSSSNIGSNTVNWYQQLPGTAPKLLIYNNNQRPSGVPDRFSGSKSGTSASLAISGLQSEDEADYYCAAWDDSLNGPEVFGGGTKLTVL
B23: C2701 (antibody, V domains shown)
VH: EVQLVESGGGLVQPGGSLRLSCAASGFTVSSNYMSWVRQAPGKGLEWVSVIYSGGSTYYADSVKGRFTISRHNSKNTLYLQMNSLRAEDTAVYYCARDYGDLFFDYWGQGTTVTVSS
VL: not shown
B24: D007 (antibody, V domains shown)
VH: QVQLVESGGGVVQPGGSLRLSCAASGFTFSSYGMHWVRQAPGKGLEWVAFIRYDGSNKYYADSVKGRFTISRDNSKNTLYLQMNSLRAEDTAVYYCAKDQYYYGSGSYSDYWGQGTLVTVSS
VL: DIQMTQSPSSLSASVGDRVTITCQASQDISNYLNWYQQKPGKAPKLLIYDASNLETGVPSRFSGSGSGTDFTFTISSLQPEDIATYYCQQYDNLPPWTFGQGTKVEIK

For one assay, the target named is T1, SARS-CoV-2 spike RBD (WT) (Severe acute respiratory syndrome …, UniProt P0DTC2). As to the kind of experiment: BLI. For orientation: BLI is a label-free optical method that tracks binding on a fibre tip over time.
Molecule B1 registered a Kd of 370 nM.
On the same count and under the same terms, the result for B2 reads 16.7 nM.
In turn, B3 returned a Kd of 46.4 nM.
As for B4, the dissociation constant Kd worked out at 116 nM.
In the case of B5, binding was put at a Kd of 125 nM.
In the case of B6, binding was put at a Kd of 201 nM.
For B7, the affinity, expressed as Kd, was 20.9 nM.
B8: the Kd turned out to be 10.5 nM.
As to B9, the dissociation constant (Kd) was 14 nM.
On to B10, for which the Kd is 19.6 nM.
Same read-out and setting: with B11 the figure was 115 nM.
With B12, the affinity, expressed as Kd, was 196 nM.
Take B13: the Kd worked out at 2420 nM.
Still for that read-out and setting: with B14 the figure was 103 nM; with B15, 153 nM; with B16, 5440 nM.
In turn, B17 displayed a Kd of 23.4 nM.
With B18, the dissociation constant Kd amounted to 13.2 nM.
On to B19, for which binding was put at a Kd of 61.1 nM.
Molecule B20 displayed a Kd of 94.8 nM.
Consider B21, for which binding was put at a Kd of 287 nM.
Regarding B22, the affinity, expressed as Kd, was 12.3 nM.
Regarding B23, the affinity, expressed as Kd, was 88.4 nM.
As for B24, the Kd came to 6720 nM.

The target in the next assay is T1, SARS-CoV-2 spike RBD (WT). The assay is described as follows: ELISA. Also on record: unit not given here.
B1: the binding score worked out at 1100.
The same measure, in the same setting: with B2 the figure was 973.
Turning to B3, the binding score is 0.826.
Regarding B4, the binding score was 1000.
B5 gave a binding score of 295.
On to B6, for which the binding score was found to be 368.
B7: the binding score turned out to be 39.7.
On the same count and under the same terms, with B8 the figure was 12.4.
Same read-out and setting: with B9 the figure was 867; with B10, 7.83.
B11 displayed a binding score of 5050.
In turn, B12 yielded a binding score of 286.
Regarding B13, the binding score worked out at 3050.
B14 yielded a binding score of 575.
B15: the binding score worked out at 124.
The same measure, in the same setting: the result for B16 reads 2390; that for B17, 4.6.
With B18, the binding score came to 33.
The molecule B19 came in with a binding score of 15.7.
Take B20: the binding score came to 9040.
On to B21, for which the binding score was determined as 52.3.
Molecule B22 gave a binding score of 62.7.
Molecule B23 registered a binding score of 170.
B24: the binding score turned out to be 8280.
